# Measurements: patent US20250163162A1
# T1: IL10Rα/IL2Rγ receptor (human) (UniProt Q13651)
# T1 sequence (looked up) 1: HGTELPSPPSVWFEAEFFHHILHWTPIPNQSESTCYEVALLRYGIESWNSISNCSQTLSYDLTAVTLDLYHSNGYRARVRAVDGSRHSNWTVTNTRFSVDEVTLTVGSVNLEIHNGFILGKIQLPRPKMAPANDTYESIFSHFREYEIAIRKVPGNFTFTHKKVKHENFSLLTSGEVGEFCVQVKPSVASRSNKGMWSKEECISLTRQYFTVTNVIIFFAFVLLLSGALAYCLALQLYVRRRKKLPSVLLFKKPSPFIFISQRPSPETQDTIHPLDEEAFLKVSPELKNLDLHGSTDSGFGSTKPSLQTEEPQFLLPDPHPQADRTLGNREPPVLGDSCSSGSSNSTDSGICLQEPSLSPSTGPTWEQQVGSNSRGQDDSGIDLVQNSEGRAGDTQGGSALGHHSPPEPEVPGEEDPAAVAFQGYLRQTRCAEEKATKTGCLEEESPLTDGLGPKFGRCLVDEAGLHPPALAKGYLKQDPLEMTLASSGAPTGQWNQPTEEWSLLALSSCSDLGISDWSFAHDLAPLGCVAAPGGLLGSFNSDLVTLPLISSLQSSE
# T1 sequence (looked up) 2: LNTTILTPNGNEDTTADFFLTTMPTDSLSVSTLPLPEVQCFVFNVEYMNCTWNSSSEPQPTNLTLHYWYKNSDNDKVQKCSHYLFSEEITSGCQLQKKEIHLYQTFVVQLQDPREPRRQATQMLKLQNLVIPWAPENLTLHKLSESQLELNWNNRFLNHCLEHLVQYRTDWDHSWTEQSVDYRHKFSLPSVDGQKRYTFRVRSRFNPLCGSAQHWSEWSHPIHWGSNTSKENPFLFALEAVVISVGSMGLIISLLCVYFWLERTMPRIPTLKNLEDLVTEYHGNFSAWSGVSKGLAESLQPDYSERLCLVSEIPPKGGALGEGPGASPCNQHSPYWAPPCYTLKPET
# B1: hIL10Ra_VHH14 - hIL2Rg_VHH19, linker GGGS, tag Fc (bispecific antibody, not shown: a dimerising Fc or GST)
# chain: QVQLQESGGGSVQAGGSLRLSCGASGYTYSSYCMGWFRQVPGKEREGVAVIDSDGSTSYADSVKGRFTISKDNGKNTLYLQMNSLKPEDTAMYYCAADLGHYRPPCGVLYLGMDYWGKGTQVTVSSGGGSQVQLQESGGGSVQAGGSLRLSCTASGFTFDDREMNWYRQAPGNECELVSTISSDGSTYYADSVKGRFTISQDNAKNTVYLQMDSVKPEDTAVYYCAADFMIAIQAPGAGCWGQGTQVTVSS
# B2: hIL10Ra_VHH14 - hIL2Rg_VHH19, linker GGGS, tag his (bispecific antibody, not shown: small tags and cut ends)
# chain: B1 chain
# Target: T1, IL10Rα/IL2Rγ receptor (human)
# Test: cell-based or functional assay
binder,measurement,value
B1,"Granzyme A secretion, CD8 T cells, at 0 µM",25200 pg/mL
same,"Granzyme A secretion, CD8 T cells, at 0.0001 µM",22100 pg/mL
same,"Granzyme A secretion, CD8 T cells, at 0.001 µM",25900 pg/mL
same,"Granzyme A secretion, CD8 T cells, at 0.01 µM",27600 pg/mL
same,"Granzyme A secretion, CD8 T cells, at 0.1 µM",30000 pg/mL
same,"Granzyme A secretion, CD8 T cells, at 1 µM",29800 pg/mL
same,"Granzyme A secretion, CD8 T cells, at 10 µM",28500 pg/mL
same,"Granzyme A secretion, CD8 T cells, at 100 µM",25700 pg/mL
same,"Granzyme B secretion, CD8 T cells, at 0 µM",77700 pg/mL
same,"Granzyme B secretion, CD8 T cells, at 0.0001 µM",54500 pg/mL
same,"Granzyme B secretion, CD8 T cells, at 0.001 µM",60900 pg/mL
same,"Granzyme B secretion, CD8 T cells, at 0.01 µM",79000 pg/mL
same,"Granzyme B secretion, CD8 T cells, at 0.1 µM",108000 pg/mL
same,"Granzyme B secretion, CD8 T cells, at 1 µM",134000 pg/mL
same,"Granzyme B secretion, CD8 T cells, at 10 µM",151000 pg/mL
same,"Granzyme B secretion, CD8 T cells, at 100 µM",93300 pg/mL
same,"IFNγ secretion, CD8 T cells, at 0 µM",122000 pg/mL
same,"IFNγ secretion, CD8 T cells, at 0.0001 µM",104000 pg/mL
same,"IFNγ secretion, CD8 T cells, at 0.001 µM",113000 pg/mL
same,"IFNγ secretion, CD8 T cells, at 0.01 µM",131000 pg/mL
same,"IFNγ secretion, CD8 T cells, at 0.1 µM",144000 pg/mL
same,"IFNγ secretion, CD8 T cells, at 1 µM",166000 pg/mL
same,"IFNγ secretion, CD8 T cells, at 10 µM",157000 pg/mL
same,"IFNγ secretion, CD8 T cells, at 100 µM",148000 pg/mL
same,"IL-1β secretion, LPS treated monocytes, at 0 µM",6240 pg/mL
same,"IL-1β secretion, LPS treated monocytes, at 0 µM (LPS only)",6880 pg/mL
same,"IL-1β secretion, LPS treated monocytes, at 0.0001 µM",6290 pg/mL
same,"IL-1β secretion, LPS treated monocytes, at 0.001 µM",5570 pg/mL
same,"IL-1β secretion, LPS treated monocytes, at 0.01 µM",5260 pg/mL
same,"IL-1β secretion, LPS treated monocytes, at 0.1 µM",4020 pg/mL
same,"IL-1β secretion, LPS treated monocytes, at 1 µM",3660 pg/mL
same,"IL-1β secretion, LPS treated monocytes, at 10 µM",4140 pg/mL
same,"IL-1β secretion, LPS treated monocytes, at 100 µM",6480 pg/mL
same,"IL-9 secretion, CD8 T cells, at 0 µM",1350 pg/mL
same,"IL-9 secretion, CD8 T cells, at 0.0001 µM",1060 pg/mL
same,"IL-9 secretion, CD8 T cells, at 0.001 µM",1120 pg/mL
same,"IL-9 secretion, CD8 T cells, at 0.01 µM",1160 pg/mL
same,"IL-9 secretion, CD8 T cells, at 0.1 µM",1420 pg/mL
same,"IL-9 secretion, CD8 T cells, at 1 µM",1780 pg/mL
same,"IL-9 secretion, CD8 T cells, at 10 µM",2150 pg/mL
same,"IL-9 secretion, CD8 T cells, at 100 µM",1930 pg/mL
B2,"Granzyme A secretion, CD8 T cells, at 0 µM",25200 pg/mL
same,"Granzyme A secretion, CD8 T cells, at 0.0001 µM",19700 pg/mL
same,"Granzyme A secretion, CD8 T cells, at 0.001 µM",20900 pg/mL
same,"Granzyme A secretion, CD8 T cells, at 0.01 µM",22300 pg/mL
same,"Granzyme A secretion, CD8 T cells, at 0.1 µM",23700 pg/mL
same,"Granzyme A secretion, CD8 T cells, at 1 µM",26400 pg/mL
same,"Granzyme A secretion, CD8 T cells, at 10 µM",26500 pg/mL
same,"Granzyme A secretion, CD8 T cells, at 100 µM",27300 pg/mL
same,"Granzyme B secretion, CD8 T cells, at 0 µM",77700 pg/mL
same,"Granzyme B secretion, CD8 T cells, at 0.0001 µM",49300 pg/mL
same,"Granzyme B secretion, CD8 T cells, at 0.001 µM",45600 pg/mL
same,"Granzyme B secretion, CD8 T cells, at 0.01 µM",48100 pg/mL
same,"Granzyme B secretion, CD8 T cells, at 0.1 µM",55300 pg/mL
same,"Granzyme B secretion, CD8 T cells, at 1 µM",72700 pg/mL
same,"Granzyme B secretion, CD8 T cells, at 10 µM",84700 pg/mL
same,"Granzyme B secretion, CD8 T cells, at 100 µM",94600 pg/mL
same,"IFNγ secretion, CD8 T cells, at 0 µM",122000 pg/mL
same,"IFNγ secretion, CD8 T cells, at 0.0001 µM",96800 pg/mL
same,"IFNγ secretion, CD8 T cells, at 0.001 µM",99600 pg/mL
same,"IFNγ secretion, CD8 T cells, at 0.01 µM",107000 pg/mL
same,"IFNγ secretion, CD8 T cells, at 0.1 µM",114000 pg/mL
same,"IFNγ secretion, CD8 T cells, at 1 µM",130000 pg/mL
same,"IFNγ secretion, CD8 T cells, at 10 µM",134000 pg/mL
same,"IFNγ secretion, CD8 T cells, at 100 µM",134000 pg/mL
same,"IL-1β secretion, LPS treated monocytes, at 0 µM",6240 pg/mL
same,"IL-1β secretion, LPS treated monocytes, at 0 µM (LPS only)",6880 pg/mL
same,"IL-1β secretion, LPS treated monocytes, at 0.0001 µM",6420 pg/mL
same,"IL-1β secretion, LPS treated monocytes, at 0.001 µM",6640 pg/mL
same,"IL-1β secretion, LPS treated monocytes, at 0.01 µM",5760 pg/mL
same,"IL-1β secretion, LPS treated monocytes, at 0.1 µM",6120 pg/mL
same,"IL-1β secretion, LPS treated monocytes, at 1 µM",5350 pg/mL
same,"IL-1β secretion, LPS treated monocytes, at 10 µM",5950 pg/mL
same,"IL-1β secretion, LPS treated monocytes, at 100 µM",6580 pg/mL
same,"IL-9 secretion, CD8 T cells, at 0 µM",1350 pg/mL
same,"IL-9 secretion, CD8 T cells, at 0.0001 µM",941 pg/mL
same,"IL-9 secretion, CD8 T cells, at 0.001 µM",1000 pg/mL
same,"IL-9 secretion, CD8 T cells, at 0.01 µM",1120 pg/mL
same,"IL-9 secretion, CD8 T cells, at 0.1 µM",1340 pg/mL
same,"IL-9 secretion, CD8 T cells, at 1 µM",1400 pg/mL
same,"IL-9 secretion, CD8 T cells, at 10 µM",1680 pg/mL
same,"IL-9 secretion, CD8 T cells, at 100 µM",1710 pg/mL
